Source: the supplement of paper PMC10899765

These sequences were tested on MCF10A (assay: 5+ nucleoli phenotype percent effect (relative to siNT 0% and siKIF11 100%); higher = more cells with five or more nucleoli). Details: 20 nM; 72 h.
Description: (§1)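 After 72 h, cells were fixed and stained with Hoechst and anti-fibrillarin, and nucleoli per nucleus were counted with CellProfiler. Values are plate-adjusted percent effect for the one-nucleolus and 5+ nucleoli phenotypes, normalised to siNT (0%) and to the positive controls siNOL11 or siKIF11 (100%), as the mean of biological triplicates. Percent viability is the nuclei count relative to siNT.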

Sequence	5+ nucleoli phenotype percent effect [%]
CGGCUGGAGGUGUGAGGA [hsa-miR-3652]	-23.6
CCCCGGUGUUGGGGCGCGUCUGC [hsa-miR-4783-3p]	13.9
UCAGUCACAUAUCUAGUGUCUA [hsa-miR-4704-3p]	10.1
UGUCUGCCCGCAUGCCUGCCUCU [hsa-miR-346]	-26.4
UCUGUGAUAGAGAUUCUUUGCU [hsa-miR-4679]	8.51
CAAAUUCGUAUCUAGGGGAAUA [hsa-miR-10a-3p]	38.1
UUAGGGAGUAGAAGGGUGGGGAG [hsa-miR-3162-5p]	-5.7
AUUCUGCAUUUUUAGCAAGUUC [hsa-miR-544a]	-31.2
AGAGGUAUAGGGCAUGGGAA [hsa-miR-202-3p]	3.86
GGAGGAACCUUGGAGCUUCGGC [hsa-miR-3928]	45.7
UGAGGGUGUCAGCAGGUGACG [hsa-miR-6804-5p]	0.774
GCGGGGCUGGGCGCGCG [hsa-miR-4508]	29.5
AAUAAAGUUCAUGUAUGGCAA [hsa-miR-5590-3p]	-19
CCGCCUUCUCUCCUCCCCCAG [hsa-miR-6880-3p]	65.6
CUACUUCUACCUGUGUUAUCAU [hsa-miR-3682-5p]	-33
UGAGGGAGGAGGUUGGGUA [hsa-miR-6133]	-0.793
GUUGGGACAAGAGGACGGUCUU [hsa-miR-3122]	22.1
ACAGCACUGCCUGGUCAGA [hsa-miR-383-3p]	-19
UGUGACAGAUUGAUAACUGAAA [hsa-miR-542-3p]	-17.1
UCUAGUAAGAGUGGCAGUCGA [hsa-miR-628-3p]	31.5
AGACACAUUUGGAGAGGGACCC [hsa-miR-642b-3p]	-6.68
AUAGGACUCAUAUAGUGCCAG [hsa-miR-3117-3p]	33
CGCGCGGCCGUGCUCGGAGCAG [hsa-miR-4479]	-37.9
ACUGGACUUAGGGUCAGAAGGC [hsa-miR-422a]	-13.7
UGGGAUGAGGGAUUGAAGUGGA [hsa-miR-5187-5p]	24.8
AAAAGUAAUUGCGAGUUUUACC [hsa-miR-548a-5p]	9.73
UAGGACACAUGGUCUACUUCU [hsa-miR-1197]	-9.77
UGGAGAGAAAGGCAGUA [hsa-miR-4306]	31.6
CAAGCCUCUCCUGCCCUUCCAG [hsa-miR-7109-3p]	31.1
AGGGGGAAAGUUCUAUAGUCC [hsa-miR-625-5p]	-16.9

Each sequence was assayed on MCF10A (assay: one-nucleolus phenotype percent effect (relative to siNT 0% and siNOL11 100%); higher = more cells with one nucleolus (ribosome biogenesis inhibition)). Details: 20 nM; 72 h.
Description: as §1

Sequence	one-nucleolus phenotype percent effect [%]
AGGCAGUGUAGUUAGCUGAUUGC [hsa-miR-34c-5p]	38.8
ACUUACAGACAAGAGCCUUGCUC [hsa-miR-600]	-28.1
UAUCGUAUCGUAUUGUAUUGU [hsa-miR-5686]	-22.7
GGCCACUGAGUCAGCACCA [hsa-miR-4252]	-3.69
UUUCUAUGUUAGUUGGAAG [hsa-miR-7159-3p]	5.4
CUCCCCUCUCUUUCCUGUUCAG [hsa-miR-6826-3p]	0.6
UGAAGCUCUAAGGUUCCGCCUGC [hsa-miR-3928-5p]	20.8
ACUUGGGCAGGAGGGACCCUGUAUG [hsa-miR-6774-5p]	31.5
ACUCCAAGAAGAAUCUAGACAG [hsa-miR-5695]	-26.7
AGAGGCUGGCCGUGAUGAAUUC [hsa-miR-485-5p]	-17.3
UAAUCCUUGCUACCUGGGUGAGA [hsa-miR-500a-5p]	19.3
UGGGUGGUCUGGAGAUUUGUGC [hsa-miR-1293]	-46.3
CUGGAGAUAUGGAAGAGCUGUGU [hsa-miR-1270]	38.6
UGGACGGAGAACUGAUAAGGGU [hsa-miR-184]	-17.7
AAUGUAAACAGGCUUUUUGCU [hsa-miR-4495]	2.68
